Measurements from patent US20240309103A1 (Regeneron, published 2024).

Key:
[1] = target: T1, human NPR1 extracellular domain expressed with a C-terminal mouse IgG2a (hNPR1-mFc) (human); assay: SPR, mAb captured, 37 C
T1 construct: also called hNPR1-Fc; human NPR1 dimer
T1 chain: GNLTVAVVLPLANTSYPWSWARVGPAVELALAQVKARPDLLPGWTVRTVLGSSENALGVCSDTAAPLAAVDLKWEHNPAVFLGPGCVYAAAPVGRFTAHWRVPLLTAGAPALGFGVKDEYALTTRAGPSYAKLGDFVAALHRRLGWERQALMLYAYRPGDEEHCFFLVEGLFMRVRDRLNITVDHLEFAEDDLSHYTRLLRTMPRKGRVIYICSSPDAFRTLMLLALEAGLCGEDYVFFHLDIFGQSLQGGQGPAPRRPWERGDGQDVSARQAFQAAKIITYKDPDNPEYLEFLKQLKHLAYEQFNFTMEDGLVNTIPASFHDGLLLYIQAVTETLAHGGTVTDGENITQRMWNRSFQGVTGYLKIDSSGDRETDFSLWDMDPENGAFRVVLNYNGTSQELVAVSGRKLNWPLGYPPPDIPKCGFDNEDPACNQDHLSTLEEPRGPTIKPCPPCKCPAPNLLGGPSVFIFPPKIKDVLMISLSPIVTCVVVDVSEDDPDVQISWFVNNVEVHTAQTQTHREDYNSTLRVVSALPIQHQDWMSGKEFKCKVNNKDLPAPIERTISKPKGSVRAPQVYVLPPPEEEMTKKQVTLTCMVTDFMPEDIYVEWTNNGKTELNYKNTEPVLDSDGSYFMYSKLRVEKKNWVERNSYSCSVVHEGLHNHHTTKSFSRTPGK
Summary of the method: (§1)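 Capture surface: anti-human Fc mAb or anti-human Fcγ pAb amine-coupled to CM5; mAbs captured, NPR1 reagent as analyte.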

[2] = target: T2, monkey NPR1 extracellular domain expressed with a C-terminal myc-myc-hexahistidine (mfNPR1-MMH) (monkey, UniProt P16066 33-473 (human entry)); assay: SPR, mAb captured, 37 C
T2 construct: also called monomeric monkey NPR1
T2 chain: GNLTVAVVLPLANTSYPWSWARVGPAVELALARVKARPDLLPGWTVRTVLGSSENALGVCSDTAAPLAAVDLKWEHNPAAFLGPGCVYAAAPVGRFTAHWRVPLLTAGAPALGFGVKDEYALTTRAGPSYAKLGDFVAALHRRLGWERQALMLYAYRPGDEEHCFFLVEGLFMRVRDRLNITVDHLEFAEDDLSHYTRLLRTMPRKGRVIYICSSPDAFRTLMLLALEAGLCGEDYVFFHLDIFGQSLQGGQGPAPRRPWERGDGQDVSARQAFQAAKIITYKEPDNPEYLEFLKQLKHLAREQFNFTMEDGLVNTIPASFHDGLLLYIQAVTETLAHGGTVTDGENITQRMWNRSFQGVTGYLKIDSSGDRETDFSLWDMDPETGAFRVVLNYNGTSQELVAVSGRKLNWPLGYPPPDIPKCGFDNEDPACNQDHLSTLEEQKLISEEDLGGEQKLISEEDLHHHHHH
Summary of the method: as §1

[3] = target: T3, human NPR1 extracellular domain expressed with a C-terminal myc-myc-hexahistidine (hNPR1-MMH) (human, UniProt P16066 33-473); assay: SPR, mAb captured, 37 C
T3 construct: also called hNPR.mmh; monomeric human NPR1
Summary of the method: as §1

[4] = target: T4, mouse NPR1 extracellular domain expressed with a C-terminal myc-myc-hexahistidine (mNPR1-MMH) (mouse, UniProt P18293 29-469); assay: SPR, mAb captured, 37 C
Summary of the method: as §1

[5] = target: T5, mouse NPR1 extracellular domain expressed with a C-terminal mouse IgG2a (mNPR1-mFc) (mouse); assay: SPR, Tables 21 to 26
T5 chain: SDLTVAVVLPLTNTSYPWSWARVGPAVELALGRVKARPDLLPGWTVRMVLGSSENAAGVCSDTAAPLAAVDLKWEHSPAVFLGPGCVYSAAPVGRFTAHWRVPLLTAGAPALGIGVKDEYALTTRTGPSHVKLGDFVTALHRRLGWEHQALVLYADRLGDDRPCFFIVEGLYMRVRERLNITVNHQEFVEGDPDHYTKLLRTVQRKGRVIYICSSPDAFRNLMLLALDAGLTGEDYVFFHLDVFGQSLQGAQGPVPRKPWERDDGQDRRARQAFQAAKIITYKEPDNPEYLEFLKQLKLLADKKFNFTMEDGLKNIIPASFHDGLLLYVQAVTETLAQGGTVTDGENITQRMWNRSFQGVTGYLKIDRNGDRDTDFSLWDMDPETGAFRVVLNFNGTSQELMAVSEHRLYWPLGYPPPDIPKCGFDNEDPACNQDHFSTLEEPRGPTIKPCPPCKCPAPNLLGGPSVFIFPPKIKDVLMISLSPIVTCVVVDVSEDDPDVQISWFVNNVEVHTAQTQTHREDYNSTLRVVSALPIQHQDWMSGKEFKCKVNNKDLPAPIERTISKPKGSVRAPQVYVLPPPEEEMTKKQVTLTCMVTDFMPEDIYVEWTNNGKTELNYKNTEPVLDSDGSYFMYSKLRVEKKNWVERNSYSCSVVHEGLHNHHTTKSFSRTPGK
Experimental: (§2) Equilibrium dissociation constant (KD) for different NPR1 reagents binding to purified anti-NPR1 monoclonal antibodies (mAbs) were determined using a real-time surface plasmon resonance based Biacore 4000 biosensor. All binding studies were performed in 10 mM HEPES, 150 mM NaCl, 3 mM EDTA, and 0.05% v/v Surfactant Tween-20, pH 7.4 (HBS-ET) running buffer at 25° C. and 37° C. The Biacore CM5 sensor chip surface was first derivatized by amine coupling with either mouse anti-human Fc specific mAb (GE Healthcare, #BR100839) or goat anti-human Fcy specific polyclonal antibody (Jackson ImmunoResearch Laboratories, #BR-1008-39) to capture anti-NPR1 mAbs.

[6] = target: T1, human NPR1 extracellular domain …; assay: SPR, mAb captured, 25 C
Summary of the method: as §1

[7] = target: T2, monkey NPR1 extracellular domain …; assay: SPR, mAb captured, 25 C
Summary of the method: as §1

[8] = target: T3, human NPR1 extracellular domain …; assay: SPR, mAb captured, 25 C
Summary of the method: as §1

[9] = target: T4, mouse NPR1 extracellular domain …; assay: SPR, mAb captured, 25 C
Summary of the method: as §1

[10] = target: T1, human NPR1 extracellular domain …; assay: SPR, mAb captured, 25 C; 25 C
Experimental: as §2

| Binder | 100 nM Ag Bound (RU) [1] [RU] | Kd [1] [nM] | koff [1] [s⁻¹] | kon [1] [M⁻¹ s⁻¹] | t½ [1] [min] | 100 nM Ag Bound (RU) [2] [RU] | Kd [2] [nM] | koff [2] [s⁻¹] | kon [2] [M⁻¹ s⁻¹] | t½ [2] [min] | 100 nM Ag Bound (RU) [3] [RU] | Kd [3] [nM] | koff [3] [s⁻¹] | 100 nM Ag Bound (RU) [4] [RU] | binding result [5] | 100 nM Ag Bound (RU) [6] [RU] | 100 nM Ag Bound (RU) [7] [RU] | 100 nM Ag Bound (RU) [8] [RU] | 100 nM Ag Bound (RU) [9] [RU] | binding result [9] | also measured |
| --- | --- | --- | --- | --- | --- | --- | --- | --- | --- | --- | --- | --- | --- | --- | --- | --- | --- | --- | --- | --- | --- |
| mAb25498 (antibody, V domains shown) VH: QVQLVESGGGVVQPGRSLRLSCVASGFTFSSYGMVWVRQTPGKGLEWVAVIWHDGTNNYYADSVKGRFTISRDNSKNTLYLQMNSLRAEDTAVYYCAREPWLVRGYYYYAMDVWGQGTTVTVSS VL: not shown | 129 | 6.41 | 0.000568 | 88600 | 20.3 | 151 | 52.1 | 0.00369 | 70700 | 3.1 | 97 | 184 | 0.00415 | 0 | no binding | 94 | 114 | 68 | 0 | no binding (tested: 100 nM) | kon [3]: 22500 M⁻¹ s⁻¹; t½ [3]: 2.8 min; Kd [6]: 3.65 nM; koff [6]: 0.000255 s⁻¹; kon [6]: 69800 M⁻¹ s⁻¹; t½ [6]: 45.3 min; Kd [7]: 27.2 nM; koff [7]: 0.00158 s⁻¹; kon [7]: 57900 M⁻¹ s⁻¹; t½ [7]: 7.3 min; Kd [8]: 81 nM; koff [8]: 0.00182 s⁻¹; kon [8]: 22500 M⁻¹ s⁻¹; t½ [8]: 6.3 min |
| mAb25508 (antibody, V domains shown) VH: EVQLVESGGGVVRPGGSLRLSCAASGFNVDDYGMSWVRQIPGKGLEWISGINWNGGRIYYADSMKGRITISRDNAKNSLYLQMNSLRAEDTALYHCVRDQWLVRGLDYWGQGTLVTVSS VL: DIQMTQSPSSLSASVGDRVTITCRASQGIYNYLAWFQQKPGKAPKSLIYAASSLQSGVPSKFSGSGSGTDFTLTISSLQPEDFATYYCQQYNTYPYTFGQGTKLEIK | 242 | 0.121 | 0.000101 | 838000 | 114 | 275 | 0.349 | 0.000273 | 782000 | 42.3 | 252 | 0.49 | 0.000222 | 0 | no binding | 211 | 213 | 192 | 0 | no binding (tested: 100 nM) | kon [3]: 453000 M⁻¹ s⁻¹; t½ [3]: 52.1 min; Kd [6]: 0.0868 nM; koff [6]: 6.85e-05 s⁻¹; kon [6]: 789000 M⁻¹ s⁻¹; t½ [6]: 169 min; Kd [7]: 0.187 nM; koff [7]: 0.000132 s⁻¹; kon [7]: 706000 M⁻¹ s⁻¹; t½ [7]: 87.5 min; Kd [8]: 0.309 nM; koff [8]: 0.000134 s⁻¹; kon [8]: 432000 M⁻¹ s⁻¹; t½ [8]: 86.5 min |
| mAb22809 (antibody, V domains shown) VH: QLQLRESGPGLVKPSETLSLTCTVSGGSINDNSFFWDWIRQTPGRGLEWIGNIFFDGNTYYTPSLKSRVIISVDMSQNQFSLRLTSVTAADTALYYCARHKRSMTAWGFFDYWGQGTLVTVSS VL: DIQMTQSPSSLSASVGDRVTITCRASKRINTYLNWYQQKPGKAPKVLIYSASNLQSGVPSRFSGSGSGTDFTLTINSLQPEDFATYFCQQSFSAPPITFGQGTRLEIK | -1 |  |  |  |  | 1 |  |  |  |  | -1 |  |  | 0 | no binding | -2 | 0 | 0 | 0 | no binding (tested: 100 nM) | binding result [7]: no binding (tested: 100 nM) |
| mAb25502 (antibody, V domains shown) VH: QLQLQESGPGLVKPSETLSLTCTVSGGSISSSSYYWGWIRQPPGKGLEWIGSIYYSGSPYYIPSLKSRVTISVDTSKNQFSLKLSSVTAADTAMYYCARQGRGIARAGPFDYWGQGTLVTVSS VL: DIQMTQSPSSLSASVGDRVTITCRASQGISNYLAWYQEKPGKVPKLLIYAASTLQSGVPSRFSGSGSGTDFTLTITSLQSEDVATYYCQKYNSAPPWTFGQGTKVEIK |  |  |  |  |  | 6 |  |  |  |  | 4 |  |  | 0 | no binding |  | 3 | 2 | 0 | no binding (tested: 100 nM) | binding result [3]: no binding (tested: 100 nM); Kd [10]: 0.994 nM; koff [10]: 8.74e-05 s⁻¹; kon [10]: 87900 M⁻¹ s⁻¹; t½ [10]: 132 min; binding result [7]: no binding (tested: 100 nM) |
